The binders below were run against Human insulin receptor ectodomain (HIR) (Homo sapiens, UniProt P06213-2;P06213-2 28-746;751-944) (assay: fluorescent Ni-plate binding assay (FNBA); PBS (1.5 mM KH2PO4, 8.1 mM Na2HPO4, 2.7 mM KCl, 137 mM NaCl) with 5 mM MgCl2, pH 7.4; MST with 0.1% Pluronic F-127 at 25 C; FNBA at room temperature; high values mean tight binding). Details: protein: commercial; tags: His-tag; chain copies: 2;2; label: 5'-Cy5.
Chain of Human insulin receptor ectodomain (HIR) (Homo sapiens, UniProt P06213-2;P06213-2 28-746;751-944) (P06213 other isoform, or with tags, fused parts or gaps, chain 1 of 2): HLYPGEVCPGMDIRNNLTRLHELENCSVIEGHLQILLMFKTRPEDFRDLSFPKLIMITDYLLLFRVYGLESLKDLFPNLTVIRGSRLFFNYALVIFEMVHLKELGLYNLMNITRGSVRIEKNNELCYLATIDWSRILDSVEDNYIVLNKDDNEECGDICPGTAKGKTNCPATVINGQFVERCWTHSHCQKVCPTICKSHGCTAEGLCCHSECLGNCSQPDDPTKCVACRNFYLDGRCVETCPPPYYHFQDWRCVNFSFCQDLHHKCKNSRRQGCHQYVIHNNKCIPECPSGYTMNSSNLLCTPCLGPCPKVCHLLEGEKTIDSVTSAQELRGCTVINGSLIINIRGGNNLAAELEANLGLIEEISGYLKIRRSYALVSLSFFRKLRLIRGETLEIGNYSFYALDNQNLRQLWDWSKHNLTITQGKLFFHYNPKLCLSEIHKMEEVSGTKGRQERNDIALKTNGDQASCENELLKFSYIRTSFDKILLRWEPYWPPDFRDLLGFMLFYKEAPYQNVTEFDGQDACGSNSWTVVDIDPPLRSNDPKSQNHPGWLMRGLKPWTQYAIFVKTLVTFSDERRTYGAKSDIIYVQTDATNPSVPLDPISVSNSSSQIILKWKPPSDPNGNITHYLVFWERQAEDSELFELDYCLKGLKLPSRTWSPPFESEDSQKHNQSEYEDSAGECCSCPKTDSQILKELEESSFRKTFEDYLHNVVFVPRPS
Chain of Human insulin receptor ectodomain (HIR) (Homo sapiens, UniProt P06213-2;P06213-2 28-746;751-944) (P06213 763-956, chain 2 of 2): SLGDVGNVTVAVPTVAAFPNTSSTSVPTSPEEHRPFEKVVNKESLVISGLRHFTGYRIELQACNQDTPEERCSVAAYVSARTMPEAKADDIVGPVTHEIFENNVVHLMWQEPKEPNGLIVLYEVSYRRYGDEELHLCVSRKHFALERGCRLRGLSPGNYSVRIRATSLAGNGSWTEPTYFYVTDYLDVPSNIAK

Binder | binding signal [a.u. fluorescence]
ACTGTATCTCGCGUUUAACGUAACAGCGAUGUCUCUCAUGAUGUC (XNA, DNA backbone; 7-deaza-7-(indolyl-ethyl)-dA (dAAIn) at 17,18,22,23,25,29,38,41; 5-(phenyl-ethynyl)-dU (dUEPh) at 14,15,16,21,30,32,34,36,39,42,44) [HIR-6_T5] | 45900 ± 733
CGCTCACTGTATCTCGCGUUUAACGUAACAGCGAU (XNA, DNA backbone; 7-deaza-7-(indolyl-ethyl)-dA (dAAIn) at 22,23,27,28,30,34; 5-(phenyl-ethynyl)-dU (dUEPh) at 19,20,21,26,35) [HIR-6_T7] | 16500
TATCTCGCGUUUAACGUAACAGCGAUGUCUCUCAUGAUGUC (XNA, DNA backbone; 7-deaza-7-(indolyl-ethyl)-dA (dAAIn) at 13,14,18,19,21,25,34,37; 5-(phenyl-ethynyl)-dU (dUEPh) at 10,11,12,17,26,28,30,32,35,38,40) [HIR-6_T6] | 45500
HIR-6_N (ssDNA) DNA: CATGACGCTCACTGTATCTCGCGTTTAACGTAACAGCGATGTCTCTCATGATGTC | 184 ± 176
HIR-8_N (ssDNA) DNA: CATGACGCTCACTGTATCTCGCCTTTAACGTAAGAGCGATGTCTCTCATGATGTC | 553 ± 165
HIR-6_M2 (XNA, DNA backbone; 7-deaza-7-(indolyl-ethyl)-dA (dAAIn) at 27,28,32,33,35,39; 5-(phenyl-ethynyl)-dU (dUEPh) at 24,25,26,31,40) DNA: CATGACGCTCACTGTATCTCGCGUUUAACGUAACAGCGAUGTCTCTCATGATGTC | 28300
CGCTCACTGTATCTCGCGUUUAACGUAACAGCGAUGUCUC (XNA, DNA backbone; 7-deaza-7-(indolyl-ethyl)-dA (dAAIn) at 22,23,27,28,30,34; 5-(phenyl-ethynyl)-dU (dUEPh) at 19,20,21,26,35,37,39) [HIR-6_T9] | 24700
CATGACGCTCACTGTATCTCGCGUUUAACGUAACAGCGAUGUCUC (XNA, DNA backbone; 7-deaza-7-(indolyl-ethyl)-dA (dAAIn) at 27,28,32,33,35,39; 5-(phenyl-ethynyl)-dU (dUEPh) at 24,25,26,31,40,42,44) [HIR-6_T2] | 30900
CATGACGCTCACTGTATCTCGCGUUUAACGUAACAGCGAUGUCUCUCAUG (XNA, DNA backbone; 7-deaza-7-(indolyl-ethyl)-dA (dAAIn) at 27,28,32,33,35,39,48; 5-(phenyl-ethynyl)-dU (dUEPh) at 24,25,26,31,40,42,44,46,49) [HIR-6_T1] | 26300
CGCTCACTGTATCTCGCGUUUAACGUAACAGCGAUGUCUCUCAUGAUGUC (XNA, DNA backbone; 7-deaza-7-(indolyl-ethyl)-dA (dAAIn) at 22,23,27,28,30,34,43,46; 5-(phenyl-ethynyl)-dU (dUEPh) at 19,20,21,26,35,37,39,41,44,47,49) [HIR-6_T4] | 44700
CATGACGCTCACTGTATCTCGCGUUUAACGUAACAGCGAU (XNA, DNA backbone; 7-deaza-7-(indolyl-ethyl)-dA (dAAIn) at 27,28,32,33,35,39; 5-(phenyl-ethynyl)-dU (dUEPh) at 24,25,26,31,40) [HIR-6_T3] | 19900
ACTGTATCTCGCGUUUAACGUAACAGCGAU (XNA, DNA backbone; 7-deaza-7-(indolyl-ethyl)-dA (dAAIn) at 17,18,22,23,25,29; 5-(phenyl-ethynyl)-dU (dUEPh) at 14,15,16,21,30) [HIR-6_T8] | 13400

Same assay, conditions: protein: commercial; tags: His-tag; chain copies: 2;2; label: 5'-Cy5; hairpin, stem 18-22/36-40, A35 bulge

Binder | binding signal [a.u. fluorescence]
HIR-6 (XNA, DNA backbone; 7-deaza-7-(indolyl-ethyl)-dA (dAAIn) at 27,28,32,33,35,39,48,51; 5-(phenyl-ethynyl)-dU (dUEPh) at 24,25,26,31,40,42,44,46,49,52,54) DNA: CATGACGCTCACTGTATCTCGCGUUUAACGUAACAGCGAUGUCUCUCAUGAUGUC | 45000 ± 766

Each binder was assayed against Human insulin receptor ectodomain (HIR) (Homo sapiens, UniProt P06213-2 28-944) (assay: FNBA; IB: PBS (1.5 mM KH2PO4, 8.1 mM Na2HPO4, 2.7 mM KCl, 137 mM NaCl) + 5 mM MgCl2, pH 7.4; MST +0.1% Pluronic F-127, 25 C; SPR 25 C; FNBA and BLI r.t.). Details: protein: commercial; tags: His-tag; chain copies: 2; label: 5'-Cy5.
Chain of Human insulin receptor ectodomain (HIR) (Homo sapiens, UniProt P06213-2 28-944) (P06213 other isoform, or with tags, fused parts or gaps): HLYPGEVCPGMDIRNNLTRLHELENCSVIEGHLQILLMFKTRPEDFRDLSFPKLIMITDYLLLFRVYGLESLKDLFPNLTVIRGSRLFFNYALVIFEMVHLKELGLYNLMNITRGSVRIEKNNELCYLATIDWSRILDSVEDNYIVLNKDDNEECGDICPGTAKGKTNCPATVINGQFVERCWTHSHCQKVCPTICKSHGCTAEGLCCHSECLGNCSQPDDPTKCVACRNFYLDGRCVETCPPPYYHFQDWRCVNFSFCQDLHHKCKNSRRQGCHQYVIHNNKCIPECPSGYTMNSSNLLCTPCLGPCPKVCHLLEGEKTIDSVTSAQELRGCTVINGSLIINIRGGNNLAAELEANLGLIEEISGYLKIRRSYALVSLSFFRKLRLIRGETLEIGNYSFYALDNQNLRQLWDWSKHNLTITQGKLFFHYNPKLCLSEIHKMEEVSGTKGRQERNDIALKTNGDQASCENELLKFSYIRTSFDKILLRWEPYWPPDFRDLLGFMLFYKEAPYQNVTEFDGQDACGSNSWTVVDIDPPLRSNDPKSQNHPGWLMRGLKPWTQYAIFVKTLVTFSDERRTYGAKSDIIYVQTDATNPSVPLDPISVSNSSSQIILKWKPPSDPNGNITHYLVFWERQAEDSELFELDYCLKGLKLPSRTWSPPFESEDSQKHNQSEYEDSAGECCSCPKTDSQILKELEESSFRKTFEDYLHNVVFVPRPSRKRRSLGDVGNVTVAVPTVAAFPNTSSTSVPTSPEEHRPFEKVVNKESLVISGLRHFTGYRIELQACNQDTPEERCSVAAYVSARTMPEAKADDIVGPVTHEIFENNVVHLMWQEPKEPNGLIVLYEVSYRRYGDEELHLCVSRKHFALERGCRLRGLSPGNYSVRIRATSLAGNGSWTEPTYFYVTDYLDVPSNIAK

Binder | binding result
HIR-6_N (ssDNA) DNA: CATGACGCTCACTGTATCTCGCGTTTAACGTAACAGCGATGTCTCTCATGATGTC | no binding
HIR-8_N (ssDNA) DNA: CATGACGCTCACTGTATCTCGCCTTTAACGTAAGAGCGATGTCTCTCATGATGTC | no binding

From paper PMC13389011, “Expedient single-round selection of hyper-modified aptamer targeting insulin receptor from over-represented dually nucleobase-modified DNA libraries”
